Source: the supplement of paper PMC12764529
± gives the half width of the 95% confidence interval.

Test: folding stability dG unfold from chymotrypsin proteolysis; higher = more stable
Outline: (§1)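 Designed mini-proteins (under 80 residues, no cysteine) in a PA-tagged cDNA display construct were digested with trypsin and chymotrypsin. Each protease was used at 11 concentrations (threefold dilutions) plus a no-protease condition, followed by sequencing. K50 was inferred by Bayesian fitting of sequencing counts, and unfolding free energy was derived against a sequence-predicted unfolded-state K50 and a shared folded-state K50, per protease or combined. Only designs with AlphaFold2 dimer inter-PAE above 15 were kept.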

Sequence	folding stability dG unfold [kcal/mol]
SAGGSAAMVPPEELAERLAEELAAKEGREVTEVTVEVLDPERGVVRVTVTFRSPEGLSTRTVVVDLSAGGSA [r15_32_JUSTAS]	3.191 ± 0.026
SAGGSAGGSAGGAVTPETIELPDATITVYTYPEGVVVEVTDPETGQATVISPEEFERLLASAGGSAGGSAGG [r7_372_JUSTAS]	1.21 ± 0.034
SAGGSAKITIKPGETITITIKLENGETVEIRMRVEELPDGTYKITMEITYPDGSKIEMELTLKIKPSAGGSA [r15_476_TrROS_Hall]	4.43 ± 0.18
SAGKKPKVIEKTITIKVYDKKTKKEYEIKIKVRVVKKDGKVIEEFSEEEAKELAKKLAEELKKNKNIKPSAG [r5_426_TrROS_Hall]	2.44 ± 0.04
SAMRILIEFDSPEEAEEALRKLVEEAGLVLEEIKVEIAPAKVTTTTPDGKKVTKTKYFALAEIKLSKKESAG [r14_773_TrMRF]	2.19 ± 0.086
SAGGMNMKPIKKETFTLPDENGNEVKIEIYKLEDGSYIIKITYPSGKTETFIVPDEETAKNLKIEIKPSAGG [r13_109_TrMRF]	2.91 ± 0.046
SAGGSAGGKVRVITVKPGETITVEGLPPGAVLITLPDGSVKEFPAGATIKVPPSAEIVVVEKEDSAGGSAGG [r6_866_TrROS_Hall]	0.885 ± 0.04
SAWIEIEKDPDGMFELEIPWPDGHPVKIHYNPDDGKPLHIMFPNGWHLQIWISPDGKIEIEDIHPIPPNSAG [r14_877_TrROS]	3.12 ± 0.049
SAGGSANPNGKPWVEVEVSFMIPIDDEDIADALGGPPKPGDWLMITVKIRVYPDGNVEIDINLHPMSAGGSA [r15_91_TrROS]	3.88 ± 0.22
SAGGSAGGSAGTITINGKPITIEKLDNGYYKVKVNGKWYEIKPGEKIELPKGATVSIEKVSAGGSAGGSAGG [r11_147_TrROS_Hall]	2.6 ± 0.035
SAGGSAGGSAGAPPGSTVTVTYTVTTTVTDRVPDGPGFTNPHTLTSTVTTTVNVGHPDLVSAGGSAGGSAGG [r11_734_TrMRF]	0.00274 ± 0.17
SAGGSAGGMPVEIEILTPDNLLPTFTIPDPEEAEKIKSVEVFGDRFIKITLGDKEIVIEVYPDNSAGGSAGG [r6_206_TrMRF]	0.559 ± 0.063
SAGGSAGGSSSYSVPDSSSVTLETTVTITFPSSSVGGSPASSGPVAFTVPVKVTVSVTNPGVASAGGSAGGS [r12_668_JUSTAS]	0.532 ± 0.18
SMTIEGMSPREAVRNIIEEFIEMFEANGNPPMPIKIRFPGNGKPIYEFPIQSKEQLLDQIENGVPVSIEFSA [r9_718_TrROS]	-0.498 ± 0.18
SAGMIDVVVRVRLDVRPETVAEELRRRFPAIRRIEPVRVERRVEREPGRRYLLVHLRIELGDVPPELLRSAG [r5_326_TrMRF]	3.714 ± 0.021
SAGGMVFTITVRNPDGTVVELPFDVSDVTITPKNGDLYITVAGGKVLTLKTDEVLDIDPAAIAAANAASAGG [r13_925_JUSTAS]	1.26 ± 0.14
SASLVVRLPDGTEILFENLSLEEVVKLFDGGEIEIEPVPKLPVVNASSLEEAEEIAEKLKPDFVITLSGSAG [r14_445_TrMRF]	1.6 ± 0.044

Test: folding stability dG unfold from trypsin proteolysis; higher = more stable
Outline: as §1

Sequence	folding stability dG unfold [kcal/mol]
SAGGSAAMVPPEELAERLAEELAAKEGREVTEVTVEVLDPERGVVRVTVTFRSPEGLSTRTVVVDLSAGGSA [r15_32_JUSTAS]	3.24 ± 0.057
SAGGSAGGSAGGAVTPETIELPDATITVYTYPEGVVVEVTDPETGQATVISPEEFERLLASAGGSAGGSAGG [r7_372_JUSTAS]	1.78 ± 0.044
SAGGSAKITIKPGETITITIKLENGETVEIRMRVEELPDGTYKITMEITYPDGSKIEMELTLKIKPSAGGSA [r15_476_TrROS_Hall]	2.58 ± 0.21
SAGKKPKVIEKTITIKVYDKKTKKEYEIKIKVRVVKKDGKVIEEFSEEEAKELAKKLAEELKKNKNIKPSAG [r5_426_TrROS_Hall]	1.81 ± 0.097
SAMRILIEFDSPEEAEEALRKLVEEAGLVLEEIKVEIAPAKVTTTTPDGKKVTKTKYFALAEIKLSKKESAG [r14_773_TrMRF]	1.47 ± 0.067
SAGGMNMKPIKKETFTLPDENGNEVKIEIYKLEDGSYIIKITYPSGKTETFIVPDEETAKNLKIEIKPSAGG [r13_109_TrMRF]	1.66 ± 0.12
SAGGSAGGKVRVITVKPGETITVEGLPPGAVLITLPDGSVKEFPAGATIKVPPSAEIVVVEKEDSAGGSAGG [r6_866_TrROS_Hall]	0.486 ± 0.022
SAWIEIEKDPDGMFELEIPWPDGHPVKIHYNPDDGKPLHIMFPNGWHLQIWISPDGKIEIEDIHPIPPNSAG [r14_877_TrROS]	3.11 ± 0.24
SAGGSANPNGKPWVEVEVSFMIPIDDEDIADALGGPPKPGDWLMITVKIRVYPDGNVEIDINLHPMSAGGSA [r15_91_TrROS]	3.96 ± 0.14
SAGGSAGGSAGTITINGKPITIEKLDNGYYKVKVNGKWYEIKPGEKIELPKGATVSIEKVSAGGSAGGSAGG [r11_147_TrROS_Hall]	1.21 ± 0.069
SAGGSAGGSAGAPPGSTVTVTYTVTTTVTDRVPDGPGFTNPHTLTSTVTTTVNVGHPDLVSAGGSAGGSAGG [r11_734_TrMRF]	0.833 ± 0.058
SAGGSAGGMPVEIEILTPDNLLPTFTIPDPEEAEKIKSVEVFGDRFIKITLGDKEIVIEVYPDNSAGGSAGG [r6_206_TrMRF]	1.48 ± 0.061
SAGGSAGGSSSYSVPDSSSVTLETTVTITFPSSSVGGSPASSGPVAFTVPVKVTVSVTNPGVASAGGSAGGS [r12_668_JUSTAS]	1.18 ± 0.029
SMTIEGMSPREAVRNIIEEFIEMFEANGNPPMPIKIRFPGNGKPIYEFPIQSKEQLLDQIENGVPVSIEFSA [r9_718_TrROS]	0.604 ± 0.027
SAGMIDVVVRVRLDVRPETVAEELRRRFPAIRRIEPVRVERRVEREPGRRYLLVHLRIELGDVPPELLRSAG [r5_326_TrMRF]	1.78 ± 0.032
SAGGMVFTITVRNPDGTVVELPFDVSDVTITPKNGDLYITVAGGKVLTLKTDEVLDIDPAAIAAANAASAGG [r13_925_JUSTAS]	0.901 ± 0.052
SASLVVRLPDGTEILFENLSLEEVVKLFDGGEIEIEPVPKLPVVNASSLEEAEEIAEKLKPDFVITLSGSAG [r14_445_TrMRF]	1.6 ± 0.088

Test: folding stability dG unfold (combined trypsin and chymotrypsin); higher = more stable
Outline: as §1

Sequence	folding stability dG unfold [kcal/mol]
SAGGSAAMVPPEELAERLAEELAAKEGREVTEVTVEVLDPERGVVRVTVTFRSPEGLSTRTVVVDLSAGGSA [r15_32_JUSTAS]	3.21 ± 0.049
SAGGSAGGSAGGAVTPETIELPDATITVYTYPEGVVVEVTDPETGQATVISPEEFERLLASAGGSAGGSAGG [r7_372_JUSTAS]	1.5 ± 0.057
SAGGSAKITIKPGETITITIKLENGETVEIRMRVEELPDGTYKITMEITYPDGSKIEMELTLKIKPSAGGSA [r15_476_TrROS_Hall]	4.05 ± 0.44
SAGKKPKVIEKTITIKVYDKKTKKEYEIKIKVRVVKKDGKVIEEFSEEEAKELAKKLAEELKKNKNIKPSAG [r5_426_TrROS_Hall]	2.22 ± 0.14
SAMRILIEFDSPEEAEEALRKLVEEAGLVLEEIKVEIAPAKVTTTTPDGKKVTKTKYFALAEIKLSKKESAG [r14_773_TrMRF]	2.12 ± 0.19
SAGGMNMKPIKKETFTLPDENGNEVKIEIYKLEDGSYIIKITYPSGKTETFIVPDEETAKNLKIEIKPSAGG [r13_109_TrMRF]	2.62 ± 0.18
SAGGSAGGKVRVITVKPGETITVEGLPPGAVLITLPDGSVKEFPAGATIKVPPSAEIVVVEKEDSAGGSAGG [r6_866_TrROS_Hall]	0.778 ± 0.1
SAWIEIEKDPDGMFELEIPWPDGHPVKIHYNPDDGKPLHIMFPNGWHLQIWISPDGKIEIEDIHPIPPNSAG [r14_877_TrROS]	3.01 ± 0.13
SAGGSANPNGKPWVEVEVSFMIPIDDEDIADALGGPPKPGDWLMITVKIRVYPDGNVEIDINLHPMSAGGSA [r15_91_TrROS]	3.95 ± 0.19
SAGGSAGGSAGTITINGKPITIEKLDNGYYKVKVNGKWYEIKPGEKIELPKGATVSIEKVSAGGSAGGSAGG [r11_147_TrROS_Hall]	2.27 ± 0.14
SAGGSAGGSAGAPPGSTVTVTYTVTTTVTDRVPDGPGFTNPHTLTSTVTTTVNVGHPDLVSAGGSAGGSAGG [r11_734_TrMRF]	0.585 ± 0.12
SAGGSAGGMPVEIEILTPDNLLPTFTIPDPEEAEKIKSVEVFGDRFIKITLGDKEIVIEVYPDNSAGGSAGG [r6_206_TrMRF]	1.01 ± 0.12
SAGGSAGGSSSYSVPDSSSVTLETTVTITFPSSSVGGSPASSGPVAFTVPVKVTVSVTNPGVASAGGSAGGS [r12_668_JUSTAS]	1.02 ± 0.14
SMTIEGMSPREAVRNIIEEFIEMFEANGNPPMPIKIRFPGNGKPIYEFPIQSKEQLLDQIENGVPVSIEFSA [r9_718_TrROS]	0.183 ± 0.1
SAGMIDVVVRVRLDVRPETVAEELRRRFPAIRRIEPVRVERRVEREPGRRYLLVHLRIELGDVPPELLRSAG [r5_326_TrMRF]	3.33 ± 0.063
SAGGMVFTITVRNPDGTVVELPFDVSDVTITPKNGDLYITVAGGKVLTLKTDEVLDIDPAAIAAANAASAGG [r13_925_JUSTAS]	1.13 ± 0.16
SASLVVRLPDGTEILFENLSLEEVVKLFDGGEIEIEPVPKLPVVNASSLEEAEEIAEKLKPDFVITLSGSAG [r14_445_TrMRF]	1.61 ± 0.074
